How the values were obtained:
[1] = tested on: Bone marrow-derived mesenchymal stem cells (MSCs); test: Differentiation of bone marrow-derived MSCs in HyStem-C beads, FABP4 expression; assay type: cell-based; details: 14 days, 50 ng/mL BMP2, or 10 ng/mL BMP4, or 100 ng/mL BMP7
Description: (§1) The Gelin-S® component (10 mg of thiol-modified gelatin (BioTime)) is dissolved in 1.0 ml of degassed deionized water to prepare a 1% w/v solution, and polyethylene glycol diacrylate (10 mg of PEGDA) is dissolved in 0.5 ml of degassed deionized water to prepare a 2% w/v solution. Then, HyStem (1 ml, 1% w/v) is mixed with Gelin-S (1 ml, 1% w/v) immediately before use. Pelleted cells are resuspended in the recently prepared HyStem:Gelin-S (1:1 v/v) mix described above. Upon the addition of the PEGDA cross-linker, the cell suspension, at a final concentration of 2.0×10^7 cells/ml is aliquoted (25 μl/aliquot) into six-well plates (Corning® 3516; VWR, PA, USA) after partial gelation. Following complete gelation (20 min), Differentiation Medium is added to each well. Plates were then placed in a humidified incubator at 37° C. with ambient O2 and 10% CO2, and the cells were fed three-times weekly. At the desired time point, hydrogel constructs were either fixed and processed for immunohistochemical analysis or lysed using RLT (Qiagen, CA, USA) with 1% beta-mercaptoethanol for total RNA to analyze transcript expression using quantitative real-time PCR (qRT-PCR) and/or whole-genome microarray.

cell line E3 = test: Differentiation of clonal hEP cell line E3 in HyStem beads, Illumina microarray gene expression; assay type: cell-based, human; details: E3
Description: (§2) Differentiation medium is high glucose DMEM (CellGro Cat. No. 15-013-CV) with Pyruvate, 1 mM (Gibco Cat. 11360), Pen:Strep 100U/ml:100 ug/ml (Gibco Cat. No. 504284), Glutamax 2 mM (Gibco Cat. No. 35050), Dexamethasone 0.1 uM (Sigma, St. Louis, Mo., Cat. No. D1756-100), L-Proline 0.35 mM (Sigma Cat. No. D49752), 2-phospho-L-Ascorbic Acid 0.17 mM (Sigma, Cat. No. 49792, Fluka), and ITS Premix (BD, Franklin Lakes, N.J., sterile Cat. No. 47743-628) with a final concentration 6.25 ug/ml insulin, 6.25 ug/ml transferrin, 6.25 ng/ml selenious acid, serum albumin 1.25 mg/ml, 5.35 ug/ml linoleic acid. In various differentiation conditions, the Differentiation medium is supplemented with various growth factors or other differentiation factors as described herein.
as §1
(§3) Total RNA was extracted directly from cells growing in 6-well plates or 10 cm tissue culture dishes using Qiagen RNeasy mini kits according to the manufacturer's instructions. RNA concentrations were measured using a Beckman DU530 or Nanodrop spectrophotometer and RNA quality was determined by denaturing agarose gel electrophoresis or using an Agilent 2100 bioanalyzer. Whole-genome expression analysis was carried out using Illumina Human Ref-8v3 or Human HT-12 v4 BeadArrays, and RNA levels for certain genes were confirmed by qRT-PCR. For the Illumina BeadArrays, total RNA was linearly amplified and biotin-labeled using Illumina TotalPrep kits (Life Technologies, Temecula, Calif., USA), and cRNA was quality-controlled using an Agilent 2100 Bioanalyzer. The cRNA was hybridized to Illumina BeadChips, processed, and read using a BeadStation array reader according to the manufacturer's instructions (Illumina, San Diego, Calif., USA). Values of less than 120 relative fluorescence units (RFUs) were considered as nonspecific background signal.

NP110SM cells = test: Differentiation of clonal embryonic progenitor line NP110SM in HyStem beads, Illumina microarray gene expression; assay type: cell-based, human
Description: as §2
as §1, with “HyStem-C (BioTime, Inc. Alameda, Calif.) is a matrix composed of thiol-modified gelatin and thiolated hyaluronan crosslinked in vivo or in vitro with (polyethylene glycol diacrylate (PEGDA). We observed that clonal human embryonic progenitor cell lines such as those described in the present invention, could be efficiently differentiated in high-density cultures of said crosslinked collagen and hyaluronate in the following manner. HyStem-C® (BioTime, CA, USA) is reconstituted following the manufacturer's instructions. Briefly, the HyStem component (10 mg of thiol-modified hyaluronan) is dissolved in 1.0 ml of degassed deionized water for approximately 20 min to prepare a 1% w/v solution. The Gelin-S®” for “The Gelin-S®”
as §3
The line NP110SM was then exposed to differentiation in the BAT cell differentiation protocols described herein. […]

fBAT cells = test: Differentiation of fBAT preadipocyte cells in HyStem beads, Illumina microarray gene expression; assay type: cell-based, human; details: 14 days HyStem beads, 50 ng/ml BMP4, FIG. 15 sample 2
Description: as §2
HyStem-C (BioTime, Inc. Alameda, Calif.) is a matrix composed of thiol-modified gelatin and thiolated hyaluronan crosslinked in vivo or in vitro with (polyethylene glycol diacrylate (PEGDA). We observed that clonal human embryonic progenitor cell lines such as those described in the present invention, could be efficiently differentiated in high-density cultures of said crosslinked collagen and hyaluronate in the following manner. HyStem-C® (BioTime, CA, USA) is reconstituted following the manufacturer's instructions. Briefly, the HyStem component (10 mg of thiol-modified hyaluronan) is dissolved in 1.0 ml of degassed deionized water for approximately 20 min to prepare a 1% w/v solution. […] At the desired time point, hydrogel constructs were either fixed and processed for immunohistochemical analysis or lysed using RLT (Qiagen, CA, USA) with 1% beta-mercaptoethanol for total RNA to analyze transcript expression using quantitative real-time PCR (qRT-PCR) and/or whole-genome microarray.
Total RNA was extracted directly from cells growing in 6-well plates or 10 cm tissue culture dishes using Qiagen RNeasy mini kits according to the manufacturer's instructions. […] Values of less than 120 relative fluorescence units (RFUs) were considered as nonspecific background signal. […]

[2] = NP110SM, 14 days HyStem beads, 50 ng/ml BMP4, FIG. 15 sample 6

B1: BMP4: Bone Morphogenetic Protein 4, TGF-beta superfamily member (protein, UniProt P12644 293-408, looked up)
Bone morphogenetic protein 4: SPKHHSQRARKKNKNCRRHSLYVDFSDVGWNDWIVAPPGYQAFYCHGDCPFPLADHLNSTNHAIVQTLVNSVNSSIPKACCVPTELSAISMLYLDEYDKVVLKNYQEMVVEGCGCR
[1]
  differentiation into adipocytes as evidenced by expression of FABP4: caused the differentiation of the cells into adipocytes
Cell line E3; HyStem beads supplemented with 10 ng/ml BMP4, FIG. 2
  expression of C19ORF80 transcript: highest expression
Cell line E3; HyStem beads with 10 ng/ml BMP4 or 100 ng/ml BMP7, FIG. 5
  PCK1 transcript expression: relatively high levels
NP110SM cells; NP110SM, 50 ng/ml of BMP4, 5 μm rosiglitazone, embedded in HyStem beads, 14-21 days
  viability as measured by RNA yields and levels of the BAT markers: highest viability
NP110SM cells; [2]
  ADIPOQ expression: markedly up-regulating
  C19ORF80 expression: markedly up-regulating
  UCP1 expression: low or undetectable level
NP110SM cells; NP110SM, HyStem beads supplemented with 10 ng/ml BMP4, FIG. 2
  expression of C19ORF80 transcript: highest expression
NP110SM cells; addition of 50 ng/ml BMP4 to 5.0 μM rosiglitazone
  viability of differentiating NP110SM cells as evidenced by RNA yields: appeared to improve the viability
fBAT cells
  ADIPOQ expression: markedly up-regulating
  C19ORF80 expression: markedly up-regulating
  UCP1 expression: low or undetectable level

From patent US20230093399A1, “METHODS FOR GENERATING PLURIPOTENT STEM CELL-DERIVED BROWN FAT CELLS” (AgeX Therapeutics, Inc., priority 2013, published 2023)
